Laboratory results reported in patent publication US20210221873A1 (Dana-Farber, published 2021).

How the values were obtained:
Experiment in all cases: FACS on transfected 293T cells
[1] = molecular target: full-length H1 HA of H1-SC1918 (A/South Carolina/1/1918 (H1N1)) (influenza A virus A/South …, UniProt Q9WFX3 18-566)
[2] = molecular target: full-length H8 HA of H8-ON68 (A/turkey/Ontario/6118/68) (influenza A virus …, UniProt P03456 16-565)
[3] = molecular target: full-length H13 HA of H13-MD77 (A/Gull/MD/704/77 (H13N6)) (influenza A virus A/Gull/MD/704/77 …, UniProt P13103 19-566)
Chain of full-length H13 HA of H13-MD77 (A/Gull/MD/704/77 (H13N6)) (P13103 19-566): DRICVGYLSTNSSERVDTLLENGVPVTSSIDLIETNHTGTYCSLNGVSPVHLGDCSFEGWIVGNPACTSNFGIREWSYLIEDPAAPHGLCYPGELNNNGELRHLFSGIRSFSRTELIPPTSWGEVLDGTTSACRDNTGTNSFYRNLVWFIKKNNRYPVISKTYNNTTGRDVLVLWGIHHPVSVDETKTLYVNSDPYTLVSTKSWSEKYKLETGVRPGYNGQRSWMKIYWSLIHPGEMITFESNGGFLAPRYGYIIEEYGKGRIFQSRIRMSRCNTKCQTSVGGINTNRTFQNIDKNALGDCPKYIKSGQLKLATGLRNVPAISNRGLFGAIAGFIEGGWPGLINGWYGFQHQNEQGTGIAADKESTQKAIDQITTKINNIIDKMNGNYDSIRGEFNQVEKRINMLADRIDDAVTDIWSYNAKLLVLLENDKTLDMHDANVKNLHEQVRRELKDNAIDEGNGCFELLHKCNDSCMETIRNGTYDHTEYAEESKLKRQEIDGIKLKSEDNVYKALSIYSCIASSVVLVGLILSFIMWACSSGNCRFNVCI

[4] = molecular target: full-length H2 HA of H2-JP57 (A/Japan/305/57 (H2N2)) (influenza A virus A/Japan/305/57 (H2N2), UniProt P03451 16-562)
[5] = molecular target: full-length H7 HA of H7-FP34 (A/FPV/Rostock/34 (H7N1)) (influenza A virus A/FPV/Rostock/34 …, UniProt P03459 19-563)
Chain of full-length H7 HA of H7-FP34 (A/FPV/Rostock/34 (H7N1)) (P03459 19-563): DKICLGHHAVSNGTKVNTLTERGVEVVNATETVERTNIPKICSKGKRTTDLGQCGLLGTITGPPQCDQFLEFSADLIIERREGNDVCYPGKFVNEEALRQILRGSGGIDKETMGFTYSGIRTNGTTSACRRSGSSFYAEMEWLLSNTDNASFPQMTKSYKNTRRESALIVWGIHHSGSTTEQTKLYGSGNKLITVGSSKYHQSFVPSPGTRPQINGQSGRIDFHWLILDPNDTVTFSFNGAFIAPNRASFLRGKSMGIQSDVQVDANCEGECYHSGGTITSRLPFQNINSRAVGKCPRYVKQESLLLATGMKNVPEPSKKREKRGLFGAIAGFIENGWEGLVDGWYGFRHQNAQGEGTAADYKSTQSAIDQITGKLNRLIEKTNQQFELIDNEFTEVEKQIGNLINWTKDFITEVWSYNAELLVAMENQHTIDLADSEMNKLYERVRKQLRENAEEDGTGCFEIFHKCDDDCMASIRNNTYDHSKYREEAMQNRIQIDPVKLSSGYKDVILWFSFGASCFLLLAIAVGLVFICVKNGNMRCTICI

[6] = molecular target: full-length H1 HA of H1-PR34 (A/Puerto Rico/8/34 (H1N1)) (influenza A virus A/Puerto Rico/8/34 …, UniProt P03452 18-565)
Chain of full-length H1 HA of H1-PR34 (A/Puerto Rico/8/34 (H1N1)) (P03452 18-565): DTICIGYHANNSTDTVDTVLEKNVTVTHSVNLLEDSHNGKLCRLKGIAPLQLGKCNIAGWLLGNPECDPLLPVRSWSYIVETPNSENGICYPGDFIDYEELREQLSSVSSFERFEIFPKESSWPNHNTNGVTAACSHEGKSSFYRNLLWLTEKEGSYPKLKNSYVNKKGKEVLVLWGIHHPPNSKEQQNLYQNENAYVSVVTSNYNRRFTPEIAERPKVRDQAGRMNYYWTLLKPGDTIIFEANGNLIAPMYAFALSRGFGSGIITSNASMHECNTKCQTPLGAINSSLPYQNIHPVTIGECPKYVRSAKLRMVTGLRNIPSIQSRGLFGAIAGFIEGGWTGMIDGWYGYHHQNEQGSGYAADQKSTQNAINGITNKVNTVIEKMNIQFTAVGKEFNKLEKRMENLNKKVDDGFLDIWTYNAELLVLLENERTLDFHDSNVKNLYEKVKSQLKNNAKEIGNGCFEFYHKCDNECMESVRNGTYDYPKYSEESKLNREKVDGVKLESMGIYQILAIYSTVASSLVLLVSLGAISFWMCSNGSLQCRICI

[7] = molecular target: full-length H14 HA of H14-CU82 (A/mallard/Gurjev/263/82 (H14N5)) (influenza A virus …, UniProt P26136 18-568)
Chain of full-length H14 HA of H14-CU82 (A/mallard/Gurjev/263/82 (H14N5)) (P26136 18-568 limits assumed): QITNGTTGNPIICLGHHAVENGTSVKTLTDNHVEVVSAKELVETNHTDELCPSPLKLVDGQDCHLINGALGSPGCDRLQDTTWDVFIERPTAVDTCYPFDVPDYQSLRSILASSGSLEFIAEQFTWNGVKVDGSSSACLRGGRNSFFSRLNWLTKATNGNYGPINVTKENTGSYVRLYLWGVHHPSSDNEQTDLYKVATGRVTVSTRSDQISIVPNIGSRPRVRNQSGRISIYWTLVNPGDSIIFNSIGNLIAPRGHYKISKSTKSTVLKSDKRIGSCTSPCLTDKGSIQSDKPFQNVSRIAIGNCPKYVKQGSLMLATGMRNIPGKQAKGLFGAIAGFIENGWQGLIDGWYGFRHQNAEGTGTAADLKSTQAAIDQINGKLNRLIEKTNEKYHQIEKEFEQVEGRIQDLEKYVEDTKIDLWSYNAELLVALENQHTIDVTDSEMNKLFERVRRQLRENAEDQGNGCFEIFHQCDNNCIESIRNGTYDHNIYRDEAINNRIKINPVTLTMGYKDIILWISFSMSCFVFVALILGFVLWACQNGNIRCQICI

Chain of full-length H8 HA of H8-ON68 (A/turkey/Ontario/6118/68) (P03456 16-565 limits assumed): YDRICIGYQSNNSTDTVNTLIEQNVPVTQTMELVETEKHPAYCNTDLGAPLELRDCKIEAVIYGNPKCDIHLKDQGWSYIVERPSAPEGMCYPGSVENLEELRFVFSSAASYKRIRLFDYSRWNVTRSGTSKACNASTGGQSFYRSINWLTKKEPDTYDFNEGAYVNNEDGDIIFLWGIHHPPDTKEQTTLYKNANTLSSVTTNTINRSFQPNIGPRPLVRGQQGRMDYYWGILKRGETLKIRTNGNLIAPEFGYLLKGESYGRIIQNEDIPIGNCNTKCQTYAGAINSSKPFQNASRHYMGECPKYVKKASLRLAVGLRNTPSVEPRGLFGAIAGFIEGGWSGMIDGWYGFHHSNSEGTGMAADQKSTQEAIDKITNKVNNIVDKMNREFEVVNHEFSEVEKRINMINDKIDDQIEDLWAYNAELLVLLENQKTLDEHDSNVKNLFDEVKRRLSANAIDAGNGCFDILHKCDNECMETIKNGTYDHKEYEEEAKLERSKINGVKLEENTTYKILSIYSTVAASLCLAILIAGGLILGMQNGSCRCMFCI
Chain of full-length H1 HA of H1-SC1918 (A/South Carolina/1/1918 (H1N1)) (Q9WFX3 18-566): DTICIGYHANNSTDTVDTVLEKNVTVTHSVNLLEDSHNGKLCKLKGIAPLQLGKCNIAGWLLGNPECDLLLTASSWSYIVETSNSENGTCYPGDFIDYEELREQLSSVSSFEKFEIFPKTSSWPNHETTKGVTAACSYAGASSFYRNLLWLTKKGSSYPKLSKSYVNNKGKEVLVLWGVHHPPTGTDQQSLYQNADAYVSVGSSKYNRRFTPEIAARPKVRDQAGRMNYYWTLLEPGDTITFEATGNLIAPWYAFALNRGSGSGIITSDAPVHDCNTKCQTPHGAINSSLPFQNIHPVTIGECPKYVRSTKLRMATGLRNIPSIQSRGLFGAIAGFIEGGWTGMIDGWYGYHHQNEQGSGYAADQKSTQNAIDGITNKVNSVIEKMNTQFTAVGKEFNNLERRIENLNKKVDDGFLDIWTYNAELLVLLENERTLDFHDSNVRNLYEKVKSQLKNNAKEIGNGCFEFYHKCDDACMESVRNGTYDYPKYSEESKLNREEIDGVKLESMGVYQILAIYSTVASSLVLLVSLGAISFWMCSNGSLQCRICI

B1: D8-IgG1 (antibody, V domains shown)
VH: QVQLVQSGAEVKKPGSSVKVSCKASGGTFSAYAFTWVRQAPGQGLEWMGGITGMFGTANYAQKFQGRVTITADELTSTAYMELSSLTSEDTALYYCARGLYYYESSLDYWGQGTLVTVSS
VL: QSVLTQPPSASGSPGQSVTISCTGTSSDVGGYNSVSWYQQHPGKAPKLMIYEVTKRPSGVPDRFSASKSGNTASLTVSGLQAEDEADYFCCSYAGHSAYVFGTGTKVTVL
binding result [1]: binds | binding result [2]: binds | binding result [3]: binds | binding result [4]: binds | binding result [5]: no binding (tested: 10 µg/mL) | binding result [6]: binds | binding result [7]: no binding

B2: F10-IgG1 (antibody, V domains shown)
VH: QVQLVQSGAEVKKPGSSVKVSCTSSEVTFSSFAISWVRQAPGQGLEWLGGISPMFGTPNYAQKFQGRVTITADQSTRTAYMDLRSLRSEDTAVYYCARSPSYICSGGTCVFDHWGQGTLVTVSS
VL: QPGLTQPPSVSKGLRQTATLTCTGNSNNVGNQGAAWLQQHQGHPPKLLSYRNNDRPSGISERFSASRSGNTASLTITGLQPEDEADYYCSTWDSSLSAVVFGGGTKLTVL
binding result [1]: binds | binding result [2]: binds | binding result [3]: binds | binding result [4]: binds | binding result [5]: no binding (tested: 10 µg/mL) | binding result [6]: binds | binding result [7]: no binding

B3: A66-IgG1 (antibody, V domains shown)
VH: QVQLVQSGAEVKKPGSSVKVSCKASGGPFSMTAFTWLRQAPGQGLEWMGGISPIFRTPKYAQKFQGRVTITADESTNTANMELTSLKSEDTAVYYCARTLSSYQPNNDAFAIWGQGTMVTVSS
VL: EIVLTQSPATLSLSPGERATLSCRASQSVSSYLAWYQQKPGQAPRLLIYDASNRATGIPARFSGSGSGTDFTLTISRLEPEDFAVYFCQQYGSSPQFGQGTRLEIK
binding result [1]: binds | binding result [2]: binds | binding result [3]: binds | binding result [4]: binds | binding result [5]: no binding (tested: 10 µg/mL) | binding result [6]: binds | binding result [7]: no binding
